Each block holds one molecule with its values, some of them ahead of it.
Tests used:
[1] = molecular target: ShTnsC (Scytonema hofmanni)
ShTniQ;ShTnsC = molecular target: T1, ShTniQ;ShTnsC (Scytonema hofmanni;Scytonema hofmanni, UniProt A0ABR8GRC6;A0ABR8GR16 1-167;1-276, |); experiment: cryo-EM
T1 sequence 1: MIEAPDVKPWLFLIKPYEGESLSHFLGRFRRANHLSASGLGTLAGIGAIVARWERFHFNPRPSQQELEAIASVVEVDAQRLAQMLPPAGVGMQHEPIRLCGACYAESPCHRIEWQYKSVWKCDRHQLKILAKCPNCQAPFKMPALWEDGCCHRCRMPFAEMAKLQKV
T1 sequence 2: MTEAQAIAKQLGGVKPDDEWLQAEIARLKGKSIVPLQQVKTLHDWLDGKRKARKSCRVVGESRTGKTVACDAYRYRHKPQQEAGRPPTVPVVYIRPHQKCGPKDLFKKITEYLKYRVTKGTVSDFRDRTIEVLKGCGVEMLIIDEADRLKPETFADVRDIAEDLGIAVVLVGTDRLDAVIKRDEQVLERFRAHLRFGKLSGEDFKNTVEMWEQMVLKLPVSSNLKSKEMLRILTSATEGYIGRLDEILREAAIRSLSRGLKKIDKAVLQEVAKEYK

- site-specific transposition activity of ShCAST in E. coli (ddPCR) [1]: 50 % reduction
Molecule: TniQ with glutamate substitution of Arg155 (natural protein)

- site-specific transposition activity of ShCAST in E. coli (ddPCR) [1]: > 90 % reduction
Molecule: TniQ with alanine substitution of Trp10 (natural protein)

B1: Target_69 duplex (oIQ088/oIQ089) (dsDNA)
DNA 1: GCGAAGGCTTAATCATCGTGGATGAAGCCGACCACCTCGATTACCCCACGCTTGAAGAACTGCGGATCC
DNA 2: GGATCCGCAGTTCTTCAAGCGTGGGGTAATCGAGGTGGTCGGCTTCATCCACGATGATTAAGCCTTCGC
- binding result (ShTniQ;ShTnsC): binds
